Measurements taken from patent US20240336907A1, “NOVEL ENDO-ß-N-ACETYLGLUCOSAMINIDASE” (priority 2020, published 2024).

Test system: (Fucα1,6)GlcNAc-mAb2
Assay: Transglycosylation activity with sugar chain oxazoline [N3-PEG(3)]-MSG1(9)-Ox as donor
Assay type: biochemical
Conditions: donor [N3-PEG(3)]-MSG1(9)-Ox (8 eq.), enzyme 1.25 μg, 28° C., pH 7.5
Description: Transglycosylation activity was evaluated as follows. […] A sample was taken from each of the reaction solutions at 1, 2, 4, 6, and 24 hours after initiation of the reaction and analyzed for protein by a fully automated electrophoresis system as mentioned above. In the chromatogram obtained, an unreacted product and transglycosylated molecule, mAb2-(MSG1-N3)2 were confirmed as discrete peaks. The transglycosylation rate was calculated based on the peak-area ratio between the unreacted product and the transglycosylated molecule in accordance with the following expression.
Transglycosylation rate (%)=[[peak area of mAb2-(MSG1-N3)2-derived H chain]/{[peak area of (Fucα1,6)GlcNAc-mAb2-derived H chain]+[peak area of mAb2-(MSG1-N3)2-derived H chain]}]×100
Similarly, the transglycosylation rates of individual Endo-Si mutant enzymes at each time period for a reaction were calculated (Table 5).

Measured: Transglycosylation rate

B1: Endo-Si WT: endo-β-N-acetylglucosaminidase derived from Streptococcus iniae, amino acid positions 34 to 928 in SEQ ID NO: 2 (protein, listed as Streptococcus iniae)
chain: REELKMPNGLEQSIADVEAKIDALTYLSKNSKDEFKHSMYEIPSNREHKPVSPKQALQNAKKADAQAERLAKMTIPKKEELKALEGPLYGGYFRTWQDKTSDPTETNKVNSFGELPKEVDLAFVFHDYTKDYSLFWEELATKQVPKLNKQGTRVIRTIPWRFLSGADHSDISADKEKFPNTEAGNKALAKAIVDEYVYKYNLDGLDIDIERDSVPKVNDKEDPEALARTVEVFKEIGKLIGANGADKSRLLIMDTTYTAEENPLIKETAQYLNLLLVQVYGFSGENGNYLHHKNILDETSSMEGRWQGYSKYIRPEQYMVGFSFYEEKDFNNRWKDINEEDPSDPHIGEKIQGTRAERYAKWQPKTGGLKGGLFSYAIDRDGVAQPKQKTEHPELDKIVKSEYKVSKALKKLMMTDDQYQPIDQSDFPDKALRESIIKQVGTRRGDLERFKGTLRLDNPEIKDLTGLNKLKRVAKLELINLPKITKIDKDDLPQNLKPLTDNQKSNLEIKGTYDDSKLYKDIPAFDLVISGLSGLESLDISGHQRDTLSGIDASTLPSLKAINISDNHFDLAQGTENRHILDTILATLAKNGASTASFDKQKPKGLYPESYSTAPLHLQVGQGKINVIDDLIFGTRTNQNTLINTENDFEAYKEQTIQGKPFIAPDYLYDNFKVSYKEYSASIVDSTLAETTDKTIDTAKAETYQVTVSNKDGKTVHSVKVIVGDEKPMMVNLAQDAKIIGTDNMTQSAKVFDGQKDQFLLSWNKDSSVIFELKTPGTAKHWRFFDDGKNDSVTLSVFKGDASNFETEKDKAENWVEITKDSRKNDDKVFSSPLEVDNAKYLKVTIKKEAKYIYFNELQILGYPGVVAKKTADDLRPTEADKSDDKSDKNDTEAK
0.0%: 1 h | 2 h | 4 h | 6 h | 24 h
